These are literature values, as cited in PMC6530603.

This data set deals with VP30 CTD (Zaire ebolavirus) (UniProt Q77DJ5).

As for “Nucleoprotein NP C-terminal region peptide (from UniProt P18272)”, the Kd – broadly, the constant that tells how readily two partners part at equilibrium – is 5.7 µM.
